How the values were obtained:
[1] = molecular target: T1, heteromeric complex of kinase-deficient TβR-II and TβR-I (UniProt P36897 34-503; P37173 23-567); experiment: co-immunoprecipitation with Flag antiserum of 125I-TGF-β1 affinity-labeled receptors, COS cells
T1 construct: whole, on cells; also called TβR-II KD with TβR-I
Method: (§1) To obtain insight into the mechanism by which Smad7 exerts its negative role in signaling by TGF-β family members, it was tested whether Smad7, like Smad2 and Smad3 (Zhang et al., *Nature* 383:168–172, 1996; Macías-Silva et al., *Cell* 87:1215–1224, 1996; Nakao et al., 1997), can associate with the TGF-β receptor complex. COS cells transfected with N-terminally Flag-tagged Smad7 in combination with TβR-II (wild-type, WT, or kinase-deficient mutant, KD) and TβR-I (wild-type or kinase deficient mutant) were affinity labeled with ^125I-TGF-β1, and cell lysates were subjected to immunoprecipitation with Flag antiserum against the Flag-epitope in Smad7. Immunoprecipitates were analyzed by SDS-PAGE and FujiX Bio-Imager. Expression of receptors and F-Smad7 after transfection was determined by immunoprecipitation with VPN antibody against TβR-I or DRL antibody against TβR-II on aliquots of cell lysates, and by immunoprecipitation with Flag antibody on lysates [^35S]methionine/cysteine labeled transfected cells. […] In contrast, Smad2 and Smad3 interact stably only with complex of […] (Macías-Silva et al., 1996; Nakao et al., 1997). No interaction was observed between Smad7 and a heteromeric complex of kinase-deficient TβR-II and TβR-I, or with TβR-II alone (FIG. 3). […]

TβR-II alone = molecular target: T2, TβR-II alone (UniProt P37173 23-567, limits assumed); experiment: as above
T2 construct: whole, on cells
Method: as §1

T2 sequence (P37173 23-567 limits assumed): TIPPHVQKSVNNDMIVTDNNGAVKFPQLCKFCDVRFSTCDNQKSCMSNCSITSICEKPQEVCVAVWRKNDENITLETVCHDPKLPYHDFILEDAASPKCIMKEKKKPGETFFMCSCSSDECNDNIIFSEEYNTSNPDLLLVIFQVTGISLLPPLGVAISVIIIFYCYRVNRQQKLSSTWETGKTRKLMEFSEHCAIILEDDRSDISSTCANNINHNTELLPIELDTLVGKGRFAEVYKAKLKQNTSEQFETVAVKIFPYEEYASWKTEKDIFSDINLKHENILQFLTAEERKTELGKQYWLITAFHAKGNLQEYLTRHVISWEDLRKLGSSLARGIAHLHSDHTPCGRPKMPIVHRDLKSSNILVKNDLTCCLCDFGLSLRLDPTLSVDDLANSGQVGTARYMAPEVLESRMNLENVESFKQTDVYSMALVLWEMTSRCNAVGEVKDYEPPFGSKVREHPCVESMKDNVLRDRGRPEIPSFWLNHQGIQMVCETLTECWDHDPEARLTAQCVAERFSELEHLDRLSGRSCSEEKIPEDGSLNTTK
T1 sequence (P36897 34-503 limits assumed, chain 1 of 2): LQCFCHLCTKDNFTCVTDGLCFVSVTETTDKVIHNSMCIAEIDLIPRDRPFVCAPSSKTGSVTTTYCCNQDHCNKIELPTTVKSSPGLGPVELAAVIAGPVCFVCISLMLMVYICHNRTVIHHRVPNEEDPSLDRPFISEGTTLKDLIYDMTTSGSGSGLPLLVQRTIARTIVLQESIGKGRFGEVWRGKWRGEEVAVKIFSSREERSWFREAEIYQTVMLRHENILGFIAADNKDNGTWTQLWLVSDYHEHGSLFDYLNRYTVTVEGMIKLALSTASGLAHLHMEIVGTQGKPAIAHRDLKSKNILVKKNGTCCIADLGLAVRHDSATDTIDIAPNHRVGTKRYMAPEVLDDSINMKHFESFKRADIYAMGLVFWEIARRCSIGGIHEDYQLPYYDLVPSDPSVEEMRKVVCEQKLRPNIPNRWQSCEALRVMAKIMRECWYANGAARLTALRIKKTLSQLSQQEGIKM
T1 sequence (P37173 23-567 K277R limits assumed, chain 2 of 2): as the sequence (P37173 23-567 limits assumed) above, with K255R counted along it

binding result [1]: no binding
binding result (TβR-II alone): no binding
B1: N-terminally Flag-tagged Smad7 (F-Smad7) (other, not shown: small tags and cut ends)
chain: MFRTKRSALVRRLWRSRAPGGEDEEEGVGGGGGGGELRGEGATDGRAYGAGGGGAGRAGCCLGKAVRGAKGHHHPHPPTSGAGAAGGAEADLKALTHSVLKKLKERQLELLLQAVESRGGTRTACLLLPGRLDCRLGPGAPASAQPAQPPSSYSLPLLLCKVFRWPDLRHSSEVKRLCCCESYGKINPELVCCNPHHLSRLCELESPPPPYSRYPMDFLKPTAGCPDAVPSSAETGGTNYLAPGGLSDSQLLLEPGDRSHWCVVAYWEEKTRVGRLYCVQEPSLDIFYDLPQGNGFCLGQLNSDNKSQLVQKVRSKIGCGIQLTREVDGVWVYNRSSYPIFIKSATLDNPDSRTLLVHKVFPGFSIKAFDYEKAYSLQRPNDHEFMQQPWTGFTVQISFVKGWGQCYTRQFISSCPCWLEVIFNSR
notes: Expressed by transfection in COS cells and immunoprecipitated with Flag antibody; also called F-mSmad7; mSmad7

Source: US6605443 (LUDWIG INSTITUTE FOR CANCER RESEARCH, dated 2003)
